Assay results reported in publication PMC4227788, “Architecture and ssDNA interaction of the Timeless-Tipin-RPA complex” (Nucleic Acids Research, 2014).

What was measured:
[1] = target: T1, Tim interacting protein (Tipin, residues 1-278) (mouse, UniProt Q91WA1 1-278); assay: SEC; Tim and Tipin co-expressed in E. coli and co-purified (Ni-NTA, Q-sepharose, SEC on Superdex 200 16/60; 20 mM Hepes pH 7.0, 125 mM NaCl, 2 mM DTT); single peak; settings: partners not purified
T1 construct: The Tipin chain of m1, written alone for the pair Tim with Tipin; also called His-GST-Tipin; source: E. coli BL21 (DE3) gold with pRARE, co-expressed with Tim, co-purified
T1 sequence (looked up): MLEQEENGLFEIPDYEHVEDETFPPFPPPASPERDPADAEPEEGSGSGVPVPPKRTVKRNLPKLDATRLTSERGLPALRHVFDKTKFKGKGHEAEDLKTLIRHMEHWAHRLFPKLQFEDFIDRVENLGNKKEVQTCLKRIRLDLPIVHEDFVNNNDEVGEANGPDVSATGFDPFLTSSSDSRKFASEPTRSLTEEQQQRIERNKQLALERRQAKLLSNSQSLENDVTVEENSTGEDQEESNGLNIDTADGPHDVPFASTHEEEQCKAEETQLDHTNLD

[2] = target: T2, Tim-Tipin complex;RPA70/32/14 (RPA70ABC/32D-WH/14) (mouse;mouse, UniProt Q9R1X4;Q91WA1;Q8VEE4;Q99KL9;Q9CQ71 1-1134;1-278;190-623;43-270;1-121, |); assay: SEC; excess DNA; intact complex, 260/280 = 1.20 ± 0.04; 20 mM Hepes pH 7.5, 125 mM NaCl, 2 mM DTT, 0.01 mM zinc acetate (Buffer A); EMSA 15 min RT + 15 min 4 C; FA 15 min 30 C, 10 nM DNA; settings: protein: recombinant;recombinant; tags: His (Tim) and His-GST (Tipin), cleaved with 3C;His; copies: 1;1;1;1;1
Tim-Tipin complex [3] = target: T3, Tim-Tipin complex (mouse, UniProt Q9R1X4;Q91WA1 1-1134;1-278); assay: SEC; excess DNA; partial binding, 260/280 = 0.98 ± 0.14; 20 mM Hepes pH 7.5, 125 mM NaCl, 2 mM DTT, 0.01 mM zinc acetate (Buffer A); EMSA 15 min RT + 15 min 4 C; FA 15 min 30 C, 10 nM DNA; settings: protein: recombinant; tags: His (Tim) and His-GST (Tipin), cleaved with 3C; copies: 1;1
T3 sequence 1: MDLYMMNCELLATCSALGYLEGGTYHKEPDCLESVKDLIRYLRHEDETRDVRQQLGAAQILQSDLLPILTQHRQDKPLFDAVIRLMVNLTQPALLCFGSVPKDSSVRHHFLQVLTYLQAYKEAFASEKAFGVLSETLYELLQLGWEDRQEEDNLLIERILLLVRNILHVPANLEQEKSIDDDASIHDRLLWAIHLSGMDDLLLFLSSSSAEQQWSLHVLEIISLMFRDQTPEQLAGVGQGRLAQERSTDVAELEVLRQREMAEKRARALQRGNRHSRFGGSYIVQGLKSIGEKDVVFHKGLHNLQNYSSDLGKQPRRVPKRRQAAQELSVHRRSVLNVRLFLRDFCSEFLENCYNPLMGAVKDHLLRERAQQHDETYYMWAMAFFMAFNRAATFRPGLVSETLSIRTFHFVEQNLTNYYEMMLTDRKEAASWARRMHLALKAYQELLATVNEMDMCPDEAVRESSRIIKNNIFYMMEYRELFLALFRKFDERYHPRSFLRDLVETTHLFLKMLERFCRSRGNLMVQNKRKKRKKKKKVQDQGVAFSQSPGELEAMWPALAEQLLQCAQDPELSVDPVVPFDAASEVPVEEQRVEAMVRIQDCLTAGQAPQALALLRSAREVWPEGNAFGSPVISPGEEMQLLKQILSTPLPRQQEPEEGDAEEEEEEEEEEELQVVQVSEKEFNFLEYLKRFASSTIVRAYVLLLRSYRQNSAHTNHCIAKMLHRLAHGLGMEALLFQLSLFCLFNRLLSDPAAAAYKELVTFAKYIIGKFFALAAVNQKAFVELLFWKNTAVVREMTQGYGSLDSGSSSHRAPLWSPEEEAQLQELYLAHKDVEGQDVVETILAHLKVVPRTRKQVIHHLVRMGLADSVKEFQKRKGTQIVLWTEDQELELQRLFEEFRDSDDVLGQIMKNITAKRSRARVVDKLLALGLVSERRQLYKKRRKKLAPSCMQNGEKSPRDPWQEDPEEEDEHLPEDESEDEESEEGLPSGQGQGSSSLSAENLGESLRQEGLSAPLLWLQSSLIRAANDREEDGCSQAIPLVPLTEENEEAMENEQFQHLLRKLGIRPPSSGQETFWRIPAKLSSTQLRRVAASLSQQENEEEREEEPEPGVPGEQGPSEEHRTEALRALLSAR
T3 sequence 2: T1 sequence (looked up)

[4] = target: T4, RPA70/32/14 (RPA70ABC/32D-WH/14) (mouse, UniProt Q8VEE4;Q99KL9;Q9CQ71 190-623;43-270;1-121); assay: SEC; excess DNA 260/280 = 1.57 ± 0.05; substoichiometric 1.32 ± 0.03; 20 mM Hepes pH 7.5, 125 mM NaCl, 2 mM DTT, 0.01 mM zinc acetate (Buffer A); EMSA 15 min RT + 15 min 4 C; FA 15 min 30 C, 10 nM DNA; settings: protein: recombinant; tags: His; copies: 1;1;1
[5] = target: T2, Tim-Tipin complex;RPA70/32/14 …; assay: SEC; excess DNA; intact complex, 260/280 = 1.11 ± 0.04; 20 mM Hepes pH 7.5, 125 mM NaCl, 2 mM DTT, 0.01 mM zinc acetate (Buffer A); EMSA 15 min RT + 15 min 4 C; FA 15 min 30 C, 10 nM DNA; settings: protein: recombinant;recombinant; tags: His (Tim) and His-GST (Tipin), cleaved with 3C;His; copies: 1;1;1;1;1
[6] = target: T4, RPA70/32/14 (RPA70ABC/32D-WH/14); assay: SEC; excess DNA 260/280 = 1.46 ± 0.01; substoichiometric 1.28 ± 0.05; 20 mM Hepes pH 7.5, 125 mM NaCl, 2 mM DTT, 0.01 mM zinc acetate (Buffer A); EMSA 15 min RT + 15 min 4 C; FA 15 min 30 C, 10 nM DNA; settings: protein: recombinant; tags: His; copies: 1;1;1
[7] = target: T4, RPA70/32/14 (RPA70ABC/32D-WH/14); assay: SEC; DNA-bound RPA released from Tim-Tipin-RPA mixture, 260/280 = 1.27 ± 0.05 and 1.22 ± 0.04; 20 mM Hepes pH 7.5, 125 mM NaCl, 2 mM DTT, 0.01 mM zinc acetate (Buffer A); EMSA 15 min RT + 15 min 4 C; FA 15 min 30 C, 10 nM DNA; settings: protein: recombinant; tags: His; copies: 1;1;1
Tim-Tipin complex [8] = target: T3, Tim-Tipin complex; assay: SEC; 260/280 = 0.54, excess or substoichiometric DNA; 20 mM Hepes pH 7.5, 125 mM NaCl, 2 mM DTT, 0.01 mM zinc acetate (Buffer A); EMSA 15 min RT + 15 min 4 C; FA 15 min 30 C, 10 nM DNA; settings: protein: recombinant; tags: His (Tim) and His-GST (Tipin), cleaved with 3C; copies: 1;1
[9] = target: T4, RPA70/32/14 (RPA70ABC/32D-WH/14); assay: EMSA; 1 RPA per DNA; 20 mM Hepes pH 7.5, 125 mM NaCl, 2 mM DTT, 0.01 mM zinc acetate (Buffer A); EMSA 15 min RT + 15 min 4 C; FA 15 min 30 C, 10 nM DNA; settings: protein: recombinant; tags: His; copies: 1;1;1; label: 5'-FAM
Tim-Tipin complex [10] = target: T3, Tim-Tipin complex; assay: EMSA; 16 uM protein, 4-64 uM DNA; 20 mM Hepes pH 7.5, 125 mM NaCl, 2 mM DTT, 0.01 mM zinc acetate (Buffer A); EMSA 15 min RT + 15 min 4 C; FA 15 min 30 C, 10 nM DNA; settings: protein: recombinant; tags: His (Tim) and His-GST (Tipin), cleaved with 3C; copies: 1;1; label: 5'-FAM
[11] = target: T2, Tim-Tipin complex;RPA70/32/14 …; assay: EMSA; excess DNA; partial dissociation; 20 mM Hepes pH 7.5, 125 mM NaCl, 2 mM DTT, 0.01 mM zinc acetate (Buffer A); EMSA 15 min RT + 15 min 4 C; FA 15 min 30 C, 10 nM DNA; settings: protein: recombinant;recombinant; tags: His (Tim) and His-GST (Tipin), cleaved with 3C;His; copies: 1;1;1;1;1; label: 5'-FAM
[12] = target: T4, RPA70/32/14 (RPA70ABC/32D-WH/14); assay: EMSA; 1 RPA with excess DNA, up to 4 RPA at substoichiometric DNA; 20 mM Hepes pH 7.5, 125 mM NaCl, 2 mM DTT, 0.01 mM zinc acetate (Buffer A); EMSA 15 min RT + 15 min 4 C; FA 15 min 30 C, 10 nM DNA; settings: protein: recombinant; tags: His; copies: 1;1;1; label: 5'-FAM
Tim-Tipin complex [13] = target: T3, Tim-Tipin complex; assay: fluorescence anisotropy; Hill n = 2.2 ± 0.1; 30 C; 20 mM Hepes pH 7.5, 125 mM NaCl, 2 mM DTT, 0.01 mM zinc acetate (Buffer A); EMSA 15 min RT + 15 min 4 C; FA 15 min 30 C, 10 nM DNA; settings: protein: recombinant; tags: His (Tim) and His-GST (Tipin), cleaved with 3C; copies: 1;1; label: 5'-FAM

T4 sequence (Q8VEE4 190-623, chain 1 of 3): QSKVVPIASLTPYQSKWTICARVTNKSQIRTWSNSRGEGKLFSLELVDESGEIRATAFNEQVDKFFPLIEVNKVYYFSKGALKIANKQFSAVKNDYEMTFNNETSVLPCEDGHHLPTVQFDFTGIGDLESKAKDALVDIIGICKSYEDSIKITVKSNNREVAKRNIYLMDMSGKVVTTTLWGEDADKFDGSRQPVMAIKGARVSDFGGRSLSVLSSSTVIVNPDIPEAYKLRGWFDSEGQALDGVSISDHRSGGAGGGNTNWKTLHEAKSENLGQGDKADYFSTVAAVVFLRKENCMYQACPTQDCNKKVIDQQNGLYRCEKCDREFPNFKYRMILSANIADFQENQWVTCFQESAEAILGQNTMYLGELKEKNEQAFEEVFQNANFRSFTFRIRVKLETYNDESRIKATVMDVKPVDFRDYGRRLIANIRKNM
T4 sequence (chain, as listed by the source, chain 2 of 3): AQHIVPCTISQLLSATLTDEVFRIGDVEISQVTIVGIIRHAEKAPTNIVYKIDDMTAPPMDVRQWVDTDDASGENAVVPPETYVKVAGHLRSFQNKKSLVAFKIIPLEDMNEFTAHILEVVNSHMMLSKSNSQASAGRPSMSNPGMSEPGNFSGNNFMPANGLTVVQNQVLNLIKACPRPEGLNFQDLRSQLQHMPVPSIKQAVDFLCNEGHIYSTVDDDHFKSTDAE
T4 sequence (Q9CQ71 whole entry, chain 3 of 3): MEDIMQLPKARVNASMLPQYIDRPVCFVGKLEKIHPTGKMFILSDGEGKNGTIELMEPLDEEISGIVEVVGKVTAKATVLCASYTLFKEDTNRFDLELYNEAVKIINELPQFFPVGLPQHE
T2 sequence (Q8VEE4 190-623, chain 3 of 3): as the sequence (Q8VEE4 190-623, chain 1 of 3) above
T2 sequence (chain, as listed by the source |, chain 4 of 3): as the sequence (chain, as listed by the source, chain 2 of 3) above
T2 sequence (Q9CQ71 whole entry, chain 5 of 3): as the sequence (Q9CQ71 whole entry, chain 3 of 3) above

B1: Timeless (Tim, residues 1-1134) (domain or fragment, mouse, UniProt Q9R1X4 1-1134, looked up)
chain: T3 sequence 1
notes: Timeless (Tim), mouse, AB019001, aa 1-1134; The Tim chain of m1, written alone for the pair Tim with Tipin; also called mTim; His-Tim; source: E. coli BL21 (DE3) gold with pRARE, co-expressed with Tipin, co-purified
In the case of B1, the “stoichiometry N” value [1] is reported as 1.

B2: 60 nt ssDNA (SEC) (ssDNA)
DNA: CAGACCGCCACCGACTGCTTAGATATTTAAGTTTTCTAATTTTTCATTGAAAGCATTAAG
B2: binds [2]; binds (Tim-Tipin complex [3]); binds [4].

B3: 31 nt ssDNA (SEC) (ssDNA)
DNA: CGGGATCCCAGCCAGCGATGTCTCAAGCTGC
B3: binds [5]; binds [6].

B4: 14 nt ssDNA (SEC) (ssDNA)
DNA: AGAAGAGCCAAAAC
B4: binds [7]; no binding (Tim-Tipin complex [8]).

B5: 14 nt FAM ssDNA (ssDNA)
DNA: GACGGCATCCCTAA
B5: binds [9]; no binding (Tim-Tipin complex [10]).

B6: 60 nt FAM ssDNA (ssDNA)
DNA: ACGCTGCCGAATTCTACCAGTGCCTTGCTAGGACATCTTTGCCCACCTGCAGGTTCACCC
With B6 the binding result [11] was “binds”, the binding result [12] was “binds” and the Kd (Tim-Tipin complex [13]) was 290 ± 10 nM.
